Assays:
Redbeads [1] = test: flow cytometry of red fluoromagnetic beads specific for alemtuzumab in PBS with 3% BSA, sample at 0 ug/ml (background of the series)
Redbeads [2] = test: flow cytometry of red fluoromagnetic beads specific for alemtuzumab in spiked PBS with 3% BSA; the text words the ug/ml values as concentrations of the beads

Mean, FL1-H (blank sample at 0.0 ug/ml) (Redbeads [1]): 2.11
Median, FL1-H (blank sample at 0.0 ug/ml) (Redbeads [1]): 1.68
Mean, FL1-H (sample at 0.1 ug/ml) (Redbeads [2]): 5.69
Mean, FL1-H (sample at 0.5 ug/ml) (Redbeads [2]): 49.1
Mean, FL1-H (sample at 1.0 ug/ml) (Redbeads [2]): 94.4
Mean, FL1-H (sample at 10 ug/ml) (Redbeads [2]): 493
Median, FL1-H (sample at 0.1 ug/ml) (Redbeads [2]): 5.26
Median, FL1-H (sample at 0.5 ug/ml) (Redbeads [2]): 36.2
Median, FL1-H (sample at 1.0 ug/ml) (Redbeads [2]): 74.3
Median, FL1-H (sample at 10 ug/ml) (Redbeads [2]): 483
Substance: alemtuzumab (antibody)
